Drawing on paper PMC4552821 (2015), this text covers Kd for one molecule.

Test [1] concerns the target T1, kerateine (reduced hair keratin extract) (Homo sapiens, UniProt Q15323). The test is described as follows: SPR. For orientation: Surface plasmon resonance follows binding to a sensor surface in real time, without labels.
Test [2] concerns the target T1, kerateine (reduced hair keratin extract). In words: SPR. The source holds these as a separate data set.

Read-outs that look alike come from different tables or passages of the source.

B1: BMP-2 (protein)
chain: QAKHKQRKRLKSSCKRHPLYVDFSDVGWNDWIVAPPGYHAFYCHGECPFPLADHLNSTNHAIVQTLVNSVNSKIPKACCVPTELSAISMLYLDENEKVVLKNYQDMVVEGCGCR
Take B1: the Kd (as a rule, a measure of binding affinity in units of concentration) came to 32 µM in test [1] and 0.11 µM in test [2].
